Numbered stars: 1 amine (or outer) side, 2 acyl side, 3 side chain; on linkers, the order of the positions; unused ones are H or OH. Square brackets hold non-standard residues; d marks the D form. Side chains are listed from the residue outwards. Ends that are not written are not given here. * marks the point of attachment. C18 diacid = O=C(O)CCCCCCCCCCCCCCCCC(=O)*; γGlu = O=C(O)[C@H](CCC(=O)[*:2])N[*:1]; AEEA = NCCOCCOCC(=O)O; Aib = CC(C)(N)C(=O)O
Columns and labels:
human GIP receptor = biological target: T1, human GIP receptor (human, UniProt P48546 22-466); assay: [125I]-GIP competition SPA, hGIPR membranes
T1 construct: whole, on cells; also called hGIPR; hGIP-R
T1 sequence (looked up): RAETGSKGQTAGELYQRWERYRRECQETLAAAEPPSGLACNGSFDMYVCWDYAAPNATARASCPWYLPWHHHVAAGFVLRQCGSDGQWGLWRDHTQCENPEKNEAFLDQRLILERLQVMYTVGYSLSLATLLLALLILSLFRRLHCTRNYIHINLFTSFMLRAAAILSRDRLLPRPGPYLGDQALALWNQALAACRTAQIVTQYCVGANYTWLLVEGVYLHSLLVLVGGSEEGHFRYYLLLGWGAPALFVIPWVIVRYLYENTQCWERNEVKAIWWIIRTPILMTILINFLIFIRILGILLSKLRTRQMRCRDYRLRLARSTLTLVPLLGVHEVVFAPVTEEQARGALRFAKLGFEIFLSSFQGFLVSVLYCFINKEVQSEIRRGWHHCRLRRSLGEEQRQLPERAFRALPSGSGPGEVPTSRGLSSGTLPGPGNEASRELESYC

human GLP-1 receptor = biological target: T2, human GLP-1 receptor (human, UniProt P43220 24-463); assay: [125I]-GLP-1 competition SPA, hGLP-1R membranes
T2 construct: whole, on cells; also called hGLP-1R; hGLP1R
Outline: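 Kᵢ values are geometric means (SEM) over replicates run on separate days, derived from IC₅₀ of four-parameter curve fits. Buffer: HEPES 25 mM pH 7.4 with CaCl₂ 2.5 mM, MgCl₂ 1 mM, bacitracin 0.1%, TWEEN-20 0.003%, EDTA-free protease inhibitors.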

human glucagon receptor = biological target: T3, human glucagon receptor (human, UniProt P47871 26-477); assay: [125I]-Gcg competition SPA, hGcgR membranes
T3 construct: whole, on cells; also called hGcgR; GcgR
T3 sequence (P47871 26-477): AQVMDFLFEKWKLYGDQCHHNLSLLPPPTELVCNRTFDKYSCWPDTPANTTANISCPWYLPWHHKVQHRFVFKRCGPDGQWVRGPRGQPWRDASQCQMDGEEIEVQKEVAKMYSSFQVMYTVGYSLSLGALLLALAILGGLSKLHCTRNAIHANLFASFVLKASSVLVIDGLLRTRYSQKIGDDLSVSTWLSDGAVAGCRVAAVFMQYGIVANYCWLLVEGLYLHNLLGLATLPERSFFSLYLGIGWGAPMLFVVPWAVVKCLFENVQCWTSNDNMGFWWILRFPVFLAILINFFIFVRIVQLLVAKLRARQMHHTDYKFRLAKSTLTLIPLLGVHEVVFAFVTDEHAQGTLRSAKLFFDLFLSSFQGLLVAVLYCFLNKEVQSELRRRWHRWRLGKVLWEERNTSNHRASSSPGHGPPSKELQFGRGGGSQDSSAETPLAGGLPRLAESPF

[1] = biological target: T4, human gastric inhibitory peptide receptor (GIPR) (human, UniProt P48546 22-466); assay: cell-based or functional assay
T4 sequence (looked up): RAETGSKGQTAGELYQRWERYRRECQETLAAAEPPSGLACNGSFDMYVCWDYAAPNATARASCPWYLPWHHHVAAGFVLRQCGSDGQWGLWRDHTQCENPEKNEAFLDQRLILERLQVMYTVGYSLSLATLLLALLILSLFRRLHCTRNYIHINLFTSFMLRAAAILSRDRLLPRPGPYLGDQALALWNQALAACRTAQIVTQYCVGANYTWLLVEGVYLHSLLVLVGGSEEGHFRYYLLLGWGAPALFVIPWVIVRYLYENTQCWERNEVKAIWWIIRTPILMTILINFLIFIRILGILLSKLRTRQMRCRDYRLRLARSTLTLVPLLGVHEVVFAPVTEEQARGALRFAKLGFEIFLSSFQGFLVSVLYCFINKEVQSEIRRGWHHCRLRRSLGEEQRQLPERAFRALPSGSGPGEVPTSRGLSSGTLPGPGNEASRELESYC

[2] = biological target: human GLP-1 receptor (GLP-1R) (human, UniProt P43220 24-463); assay: cell-based or functional assay

B1: Example 316 (peptide)
peptide: Y[Aib]EGTFTSDYSILLDKK([AEEA-AEEA-γGlu-C18 diacid])AQ[Aib]AFIEYLIAGGPSSGAPPPS-NH2
modifications: N-terminus assumed
SMILES: CC[C@H](C)[C@H](NC(=O)[C@H](CC(C)C)NC(=O)[C@H](Cc1ccc(O)cc1)NC(=O)[C@H](CCC(=O)O)NC(=O)[C@@H](NC(=O)[C@H](Cc1ccccc1)NC(=O)[C@H](C)NC(=O)C(C)(C)NC(=O)[C@H](CCC(N)=O)NC(=O)[C@H](C)NC(=O)[C@H](CCCCNC(=O)COCCOCCNC(=O)COCCOCCNC(=O)CC[C@H](NC(=O)CCCCCCCCCCCCCCCCC(=O)O)C(=O)O)NC(=O)[C@H](CCCCN)NC(=O)[C@H](CC(=O)O)NC(=O)[C@H](CC(C)C)NC(=O)[C@H](CC(C)C)NC(=O)[C@@H](NC(=O)[C@H](CO)NC(=O)[C@H](Cc1ccc(O)cc1)NC(=O)[C@H](CC(=O)O)NC(=O)[C@H](CO)NC(=O)[C@@H](NC(=O)[C@H](Cc1ccccc1)NC(=O)[C@@H](NC(=O)CNC(=O)[C@H](CCC(=O)O)NC(=O)C(C)(C)NC(=O)[C@@H](N)Cc1ccc(O)cc1)[C@@H](C)O)[C@@H](C)O)[C@@H](C)CC)[C@@H](C)CC)C(=O)N[C@@H](C)C(=O)NCC(=O)NCC(=O)N1CCC[C@H]1C(=O)N[C@@H](CO)C(=O)N[C@@H](CO)C(=O)NCC(=O)N[C@@H](C)C(=O)N1CCC[C@H]1C(=O)N1CCC[C@H]1C(=O)N1CCC[C@H]1C(=O)N[C@@H](CO)C(N)=O
Ki (human GIP receptor): 0.0418 nM
Ki (human GLP-1 receptor): 0.957 nM
Ki (human glucagon receptor): 654 nM

B2: Example 325 (peptide)
peptide: YXEGTXTSDYSILLDKKAQXAFIEYLIEGGPSSGAPPPS
modifications: Aib2; αMeF(2F)6; K17((2-[2-(2-Amino-ethoxy)-ethoxy]-acetyl)2-(γ-Glu)-CO-(CH2)18-CO2H); Aib20; C-terminal NH2
Ki (human GIP receptor): 0.0209 nM
Ki (human GLP-1 receptor): 0.475 nM
Ki (human glucagon receptor): 13 nM

B3: (D-Tyr)-Aib-EGTFTSDYSI-αMeL-LD-Orn-K((2-[2-(2-Amino-ethoxy)-ethoxy]-acetyl)2-(γ-Glu)-CO-(CH2)18-CO2H)AQ-Aib-AFVEYLIEGGPSSGAPPPS-NH2 (peptide)
peptide: XXEGTFTSDYSIXLDXKAQXAFVEYLIEGGPSSGAPPPS
modifications: D-Tyr1; Aib2; αMeL13; Orn16; K17 conjugated to (2-[2-(2-Amino-ethoxy)-ethoxy]-acetyl)2-(γ-Glu)-CO-(CH2)18-CO2H; Aib20; C-terminal amide (NH2)
hGIPR cAMP EC50 ratio [1]: 0.53
hGLP1R cAMP EC50 ratio [2]: 0.171

B4: Example 335 (peptide)
peptide: XXEGTXTSDYSIXLDKKAQXAFIEYLIEGGPSSGAPPPS
modifications: D-Tyr1; Aib2; αMeF6; αMeL13; K17((2-[2-(2-Amino-ethoxy)-ethoxy]-acetyl)2-(γ-Glu)-CO-(CH2)18-CO2H); Aib20; C-terminal NH2
Ki (human GIP receptor): 0.0444 nM
Ki (human GLP-1 receptor): 2.54 nM
Ki (human glucagon receptor): 27.1 nM

B5: Example 329 (peptide)
peptide: XXEGTXTSDYSILLDKKAQXAFIEYLIEGGPSSGAPPPS
modifications: D-Tyr1; Aib2; αMeF6; K17((2-[2-(2-Amino-ethoxy)-ethoxy]-acetyl)2-(γ-Glu)-CO-(CH2)18-CO2H); Aib20; C-terminal NH2
Ki (human GIP receptor): 0.0439 nM
Ki (human GLP-1 receptor): 3.28 nM
Ki (human glucagon receptor): 17 nM

B6: Example 336 (peptide)
peptide: XXEGTXTSDYSIXLDKKAQXAFIEYLIEGGPSSGAPPPS
modifications: D-Tyr1; Aib2; αMeF(2F)6; αMeL13; K17((2-[2-(2-Amino-ethoxy)-ethoxy]-acetyl)2-(γ-Glu)-CO-(CH2)18-CO2H); Aib20; C-terminal NH2
Ki (human GIP receptor): 0.0277 nM
Ki (human GLP-1 receptor): 2.44 nM
Ki (human glucagon receptor): 17.1 nM

B7: Example 358 (peptide)
peptide: XXEGTFTSDYSIXLDXKAQXAFVEYLIAGGPSSGAPPPS
modifications: D-Tyr1; Aib2; αMeL13; Orn16; K17((2-[2-(2-Amino-ethoxy)-ethoxy]-acetyl)2-(γ-Glu)-CO-(CH2)18-CO2H); Aib20; C-terminal NH2
Ki (human GIP receptor): 0.0636 nM
Ki (human GLP-1 receptor): 1.37 nM
Ki (human glucagon receptor): 915 nM

B8: (D-Tyr)-Aib-EGTFTSDYSI-αMeL-LDKK((2-[2-(2-Amino-ethoxy)-ethoxy]-acetyl)2-(γ-Glu)-CO-(CH2)18-CO2H)AQ-Aib-AFV-(D-Glu)-YLIAGGPSSGAPPPS-NH2 (peptide)
peptide: XXEGTFTSDYSIXLDKKAQXAFVXYLIAGGPSSGAPPPS
modifications: D-Tyr1; Aib2; αMeL13; K17 conjugated to (2-[2-(2-Amino-ethoxy)-ethoxy]-acetyl)2-(γ-Glu)-CO-(CH2)18-CO2H; Aib20; D-Glu24; C-terminal amide (NH2)
hGIPR cAMP EC50 ratio [1]: 0.261
hGLP1R cAMP EC50 ratio [2]: 0.0259

B9: (D-Tyr)-Aib-EGTFTSDYSI-αMeL-LD-Orn-K((2-[2-(2-Amino-ethoxy)-ethoxy]-acetyl)2-(γ-Glu)-CO-(CH2)18-CO2H)AQ-Aib-AFV-(D-Glu)-YLIAGGPSSGAPPPS-NH2 (peptide)
peptide: XXEGTFTSDYSIXLDXKAQXAFVXYLIAGGPSSGAPPPS
modifications: D-Tyr1; Aib2; αMeL13; Orn16; K17 conjugated to (2-[2-(2-Amino-ethoxy)-ethoxy]-acetyl)2-(γ-Glu)-CO-(CH2)18-CO2H; Aib20; D-Glu24; C-terminal amide (NH2)
hGIPR cAMP EC50 ratio [1]: 0.347
hGLP1R cAMP EC50 ratio [2]: 0.0805

B10: (D-Tyr)-Aib-EGTFTSDYSI-αMeL-LD-Orn-K((2-[2-(2-Amino-ethoxy)-ethoxy]-acetyl)2-(D-(γ-Glu)-CO-(CH2)16-CO2H)AQ-Aib-AFI-Glu)-YLIAGGPSSGAPPPS-NH2 (peptide)
peptide: XXEGTFTSDYSIXLDXKAQXAFIXYLIAGGPSSGAPPPS
modifications: D-Tyr1; Aib2; αMeL13; Orn16; K17 conjugated to (2-[2-(2-Amino-ethoxy)-ethoxy]-acetyl)2-(γ-Glu)-CO-(CH2)16-CO2H; Aib20; C-terminal amide (NH2)
hGIPR cAMP EC50 ratio [1]: 0.835
hGLP1R cAMP EC50 ratio [2]: 0.146

B11: Example 360 (peptide)
peptide: XXEGTFTSDYSIXLDXKAQXAFVEYLIEGGPSSGAPPPS
modifications: D-Tyr1; Aib2; αMeL13; Orn16; K17((2-[2-(2-Amino-ethoxy)-ethoxy]-acetyl)2-(γ-Glu)-CO-(CH2)18-CO2H); Aib20; C-terminal NH2
Ki (human GIP receptor): 0.128 nM
Ki (human GLP-1 receptor): 1.74 nM
Ki (human glucagon receptor): 485 nM

B12: Example 346 (peptide)
peptide: XXEGTFTSDYSIXLDXKAQXAFIEYLIAGGPSSGAPPPS
modifications: D-Tyr1; Aib2; αMeL13; Orn16; K17((2-[2-(2-Amino-ethoxy)-ethoxy]-acetyl)2-(γ-Glu)-CO-(CH2)18-CO2H); Aib20; C-terminal NH2
Ki (human GIP receptor): 0.0559 nM
Ki (human GLP-1 receptor): 1.67 nM
Ki (human glucagon receptor): 310 nM

B13: Example 367 (peptide)
peptide: YXEGTFTSDYSIXLDKKAQXEFIEXLIAGGPSSGAPPPS
modifications: Aib2; αMeL13; K17((2-[2-(2-Amino-ethoxy)-ethoxy]-acetyl)2-(γ-Glu)-CO-(CH2)18-CO2H); Aib20; αMeY25; C-terminal NH2
Ki (human GIP receptor): 0.0282 nM
Ki (human GLP-1 receptor): 0.809 nM
Ki (human glucagon receptor): 777 nM

From patent US20200024322A1 (Eli Lilly, published 2020)
